Test results reported in the Human Domainome abundance scans (Beltran et al. 2025).
± gives the uncertainty stated by the source.

B1: Histone-lysine N-methyltransferase 2A, residues 1148 to 1194; numbered along this chain, Q03164 (parent)
chain: KGRRSRRCGQCPGCQVPEDCGVCTNCLDKPKFGGRNIKKQCCKMRKC
B2: RNA-binding E3 ubiquitin-protein ligase MEX3C, residues 325 to 391; numbered along this chain, Q5U5Q3 (parent)
chain: GQTTVQVRVPYRVVGLVVGPKGATIKRIQQQTHTYIVTPSRDKEPVFEVTGMPENVDRAREEIEMHI

Variants of: B1
Assay: abundance fitness (aPCA) (normalised: wild type 0, dead -1); higher = more abundant; growth selection in yeast, the domain comes from the species named
Settings: Homo sapiens

Point of comparison: KGRRSRRCGQCPGCQVPEDCGVCTNCLDKPKFGGRNIKKQSCKMRKC [C41S], abundance fitness -0.066 ± 0.09. Against it:
- KGRRSRRCGQCPGCQVPEDCGVCTNCLDKPKFGGQNIKKQCCKMRKC [R35Q] — within error, 0.065 ± 0.12
- VGRRSRRCGQCPGCQVPEDCGVCTNCLDKPKFGGRNIKKQCCKMRKC [K1V] — within error, -0.43 ± 0.31
- KGRRSRRCGQCPGCQVPEDCGVCTNALDKPKFGGRNIKKQCCKMRKC [C26A] — lower, -0.914 ± 0.15
- KGRRSRRCGQCRGCQVPEDCGVCTNCLDKPKFGGRNIKKQCCKMRKC [P12R] — lower, -0.398 ± 0.082
- KGRRSRRCGQCPGCQVPEDCGVCTNCLDKPKFGGRNIKGQCCKMRKC [K39G] — within error, -0.004 ± 0.076
- KGRRSRRCGQCPGCQVPEDCGVCTNCLDKPKFGGRNIKEQCCKMRKC [K39E] — higher, 0.156 ± 0.13
- KGRRSRRCGQCPGCQVPEDCGVCTNCLDKPKFGGRNGKKQCCKMRKC [I37G] — within error, -0.056 ± 0.072

Variants of: B2
Assay: as above
Settings: Homo sapiens

Point of comparison: GQTCVQVRVPYRVVGLVVGPKGATIKRIQQQTHTYIVTPSRDKEPVFEVTGMPENVDRAREEIEMHI [T4C], abundance fitness -0.718 ± 0.2. Against it:
- GQTTVAVRVPYRVVGLVVGPKGATIKRIQQQTHTYIVTPSRDKEPVFEVTGMPENVDRAREEIEMHI [Q6A] — higher, -0.1 ± 0.072
- GQTTVDVRVPYRVVGLVVGPKGATIKRIQQQTHTYIVTPSRDKEPVFEVTGMPENVDRAREEIEMHI [Q6D] — within error, -0.657 ± 0.25
- GQTTVCVRVPYRVVGLVVGPKGATIKRIQQQTHTYIVTPSRDKEPVFEVTGMPENVDRAREEIEMHI [Q6C] — higher, -0.028 ± 0.21
- GQTTVEVRVPYRVVGLVVGPKGATIKRIQQQTHTYIVTPSRDKEPVFEVTGMPENVDRAREEIEMHI [Q6E] — higher, -0.218 ± 0.18
- GYTTVQVRVPYRVVGLVVGPKGATIKRIQQQTHTYIVTPSRDKEPVFEVTGMPENVDRAREEIEMHI [Q2Y] — higher, -0.047 ± 0.12
- GSTTVQVRVPYRVVGLVVGPKGATIKRIQQQTHTYIVTPSRDKEPVFEVTGMPENVDRAREEIEMHI [Q2S] — higher, -0.356 ± 0.098
- GATTVQVRVPYRVVGLVVGPKGATIKRIQQQTHTYIVTPSRDKEPVFEVTGMPENVDRAREEIEMHI [Q2A] — higher, -0.409 ± 0.1
- GRTTVQVRVPYRVVGLVVGPKGATIKRIQQQTHTYIVTPSRDKEPVFEVTGMPENVDRAREEIEMHI [Q2R] — higher, -0.208 ± 0.053
- GETTVQVRVPYRVVGLVVGPKGATIKRIQQQTHTYIVTPSRDKEPVFEVTGMPENVDRAREEIEMHI [Q2E] — higher, -0.022 ± 0.089
- GMTTVQVRVPYRVVGLVVGPKGATIKRIQQQTHTYIVTPSRDKEPVFEVTGMPENVDRAREEIEMHI [Q2M] — higher, -0.001 ± 0.13
- GDTTVQVRVPYRVVGLVVGPKGATIKRIQQQTHTYIVTPSRDKEPVFEVTGMPENVDRAREEIEMHI [Q2D] — higher, -0.155 ± 0.18
- GNTTVQVRVPYRVVGLVVGPKGATIKRIQQQTHTYIVTPSRDKEPVFEVTGMPENVDRAREEIEMHI [Q2N] — higher, -0.061 ± 0.092
- GGTTVQVRVPYRVVGLVVGPKGATIKRIQQQTHTYIVTPSRDKEPVFEVTGMPENVDRAREEIEMHI [Q2G] — higher, -0.403 ± 0.073
- GCTTVQVRVPYRVVGLVVGPKGATIKRIQQQTHTYIVTPSRDKEPVFEVTGMPENVDRAREEIEMHI [Q2C] — higher, -0.148 ± 0.093
- GPTTVQVRVPYRVVGLVVGPKGATIKRIQQQTHTYIVTPSRDKEPVFEVTGMPENVDRAREEIEMHI [Q2P] — higher, -0.181 ± 0.082
- GVTTVQVRVPYRVVGLVVGPKGATIKRIQQQTHTYIVTPSRDKEPVFEVTGMPENVDRAREEIEMHI [Q2V] — higher, -0.069 ± 0.078
- GWTTVQVRVPYRVVGLVVGPKGATIKRIQQQTHTYIVTPSRDKEPVFEVTGMPENVDRAREEIEMHI [Q2W] — higher, -0.302 ± 0.081
- GLTTVQVRVPYRVVGLVVGPKGATIKRIQQQTHTYIVTPSRDKEPVFEVTGMPENVDRAREEIEMHI [Q2L] — higher, 0.017 ± 0.06
- GFTTVQVRVPYRVVGLVVGPKGATIKRIQQQTHTYIVTPSRDKEPVFEVTGMPENVDRAREEIEMHI [Q2F] — higher, 0.057 ± 0.088
- GKTTVQVRVPYRVVGLVVGPKGATIKRIQQQTHTYIVTPSRDKEPVFEVTGMPENVDRAREEIEMHI [Q2K] — higher, 0.145 ± 0.089
- GHTTVQVRVPYRVVGLVVGPKGATIKRIQQQTHTYIVTPSRDKEPVFEVTGMPENVDRAREEIEMHI [Q2H] — higher, 0.017 ± 0.12
- GITTVQVRVPYRVVGLVVGPKGATIKRIQQQTHTYIVTPSRDKEPVFEVTGMPENVDRAREEIEMHI [Q2I] — higher, -0.174 ± 0.18
- GQTEVQVRVPYRVVGLVVGPKGATIKRIQQQTHTYIVTPSRDKEPVFEVTGMPENVDRAREEIEMHI [T4E] — within error, -1.06 ± 0.24
- GQTFVQVRVPYRVVGLVVGPKGATIKRIQQQTHTYIVTPSRDKEPVFEVTGMPENVDRAREEIEMHI [T4F] — within error, -0.881 ± 0.26
- GQTWVQVRVPYRVVGLVVGPKGATIKRIQQQTHTYIVTPSRDKEPVFEVTGMPENVDRAREEIEMHI [T4W] — within error, -0.832 ± 0.19
- GQTLVQVRVPYRVVGLVVGPKGATIKRIQQQTHTYIVTPSRDKEPVFEVTGMPENVDRAREEIEMHI [T4L] — within error, -0.756 ± 0.088
- GQTIVQVRVPYRVVGLVVGPKGATIKRIQQQTHTYIVTPSRDKEPVFEVTGMPENVDRAREEIEMHI [T4I] — within error, -0.622 ± 0.18
- GQTHVQVRVPYRVVGLVVGPKGATIKRIQQQTHTYIVTPSRDKEPVFEVTGMPENVDRAREEIEMHI [T4H] — higher, -0.38 ± 0.12
- GQTSVQVRVPYRVVGLVVGPKGATIKRIQQQTHTYIVTPSRDKEPVFEVTGMPENVDRAREEIEMHI [T4S] — within error, -0.757 ± 0.13
- GQTGVQVRVPYRVVGLVVGPKGATIKRIQQQTHTYIVTPSRDKEPVFEVTGMPENVDRAREEIEMHI [T4G] — within error, -0.646 ± 0.13
- GQTRVQVRVPYRVVGLVVGPKGATIKRIQQQTHTYIVTPSRDKEPVFEVTGMPENVDRAREEIEMHI [T4R] — higher, -0.425 ± 0.078
- GQTMVQVRVPYRVVGLVVGPKGATIKRIQQQTHTYIVTPSRDKEPVFEVTGMPENVDRAREEIEMHI [T4M] — within error, -0.751 ± 0.23
